Test results taken from patent publication US20220363763A1 (ABL BIO, published 2022).

Assays:
Bio-LAG3 = target: T1, Bio-LAG3 (human, UniProt P18627 23-450, limits assumed, biotinylated (sites not given)); experiment: ELISA, Bio-LAG3 held on streptavidin-coated plate
T1 construct: also called human LAG3 protein
T1 sequence (looked up): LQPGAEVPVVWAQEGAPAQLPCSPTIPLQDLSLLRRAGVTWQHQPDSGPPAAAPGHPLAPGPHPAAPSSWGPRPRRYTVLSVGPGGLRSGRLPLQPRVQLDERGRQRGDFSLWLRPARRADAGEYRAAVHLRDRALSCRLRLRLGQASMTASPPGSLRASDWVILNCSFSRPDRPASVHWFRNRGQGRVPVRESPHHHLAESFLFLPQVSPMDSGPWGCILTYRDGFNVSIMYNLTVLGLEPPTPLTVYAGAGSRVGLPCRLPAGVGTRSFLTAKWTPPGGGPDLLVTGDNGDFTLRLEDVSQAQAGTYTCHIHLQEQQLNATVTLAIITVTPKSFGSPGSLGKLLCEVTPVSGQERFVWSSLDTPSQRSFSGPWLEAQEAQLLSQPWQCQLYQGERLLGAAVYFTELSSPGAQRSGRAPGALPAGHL
Description: The streptavidin was coated to an ELISA plate at 2 μg/ml with 100 μl/well. 100 μl of Bio-LAG3 at 1.0 μg/ml was subsequently incubated with streptavidin at RT for 1 hr. B3807, along with a positive control 25F7 and a negative control IgG, were serially diluted with ELISA diluent buffer. To assess binding, the antibodies at various concentrations were added to LAG3 protein-coated plate for 1.5 hr RT. The resulting plates were washed and then labeled with anti-human IgG(Fab)-HRP antibody.

[1] = target: T2, human LAG3 (construct not stated) (human, UniProt P18627 23-450, limits assumed); experiment: TR-FRET LAG3 / MHC II binding assay (Cisbio), competitor MHC II
T2 construct: also called human LAG3 protein; antigen
T2 sequence (looked up): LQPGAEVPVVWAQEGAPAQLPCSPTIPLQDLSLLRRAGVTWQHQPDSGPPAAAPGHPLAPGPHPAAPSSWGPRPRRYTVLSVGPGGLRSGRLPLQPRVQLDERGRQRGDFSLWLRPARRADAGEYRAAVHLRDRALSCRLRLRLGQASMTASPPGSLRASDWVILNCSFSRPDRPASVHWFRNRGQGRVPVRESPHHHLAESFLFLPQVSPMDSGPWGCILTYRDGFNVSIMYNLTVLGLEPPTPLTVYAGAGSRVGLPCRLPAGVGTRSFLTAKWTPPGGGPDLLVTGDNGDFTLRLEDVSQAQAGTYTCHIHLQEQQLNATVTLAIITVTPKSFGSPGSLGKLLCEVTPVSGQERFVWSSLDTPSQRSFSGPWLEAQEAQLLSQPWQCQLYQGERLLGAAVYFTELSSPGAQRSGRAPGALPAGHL
Description: To measure the ability of B3807 to block the interaction between human LAG3 and MHCII, the LAG3 and MHC II binding assay (Cisbio, 64ICP03PEG) was performed utilizing homogeneous TR-FRET technology, following the protocol provided by the kit manufacturer. B3807 was 3-fold diluted ranging from 100 nM to 5 pM (10 points). Fluorescence data was acquired on a PerkinElmer Envision plate reader and a four-parameter dose-response curve was fitted to obtain IC50 of each antibody.

human LAG3 on cells [2] = target: T3, human LAG3 on cells (human, UniProt P18627 23-525); experiment: flow cytometry (MFI) on activated human PBMC (CD4+ cells), lower panel
T3 construct: whole, on cells; also called Jurkat-LAG3
T3 sequence (looked up): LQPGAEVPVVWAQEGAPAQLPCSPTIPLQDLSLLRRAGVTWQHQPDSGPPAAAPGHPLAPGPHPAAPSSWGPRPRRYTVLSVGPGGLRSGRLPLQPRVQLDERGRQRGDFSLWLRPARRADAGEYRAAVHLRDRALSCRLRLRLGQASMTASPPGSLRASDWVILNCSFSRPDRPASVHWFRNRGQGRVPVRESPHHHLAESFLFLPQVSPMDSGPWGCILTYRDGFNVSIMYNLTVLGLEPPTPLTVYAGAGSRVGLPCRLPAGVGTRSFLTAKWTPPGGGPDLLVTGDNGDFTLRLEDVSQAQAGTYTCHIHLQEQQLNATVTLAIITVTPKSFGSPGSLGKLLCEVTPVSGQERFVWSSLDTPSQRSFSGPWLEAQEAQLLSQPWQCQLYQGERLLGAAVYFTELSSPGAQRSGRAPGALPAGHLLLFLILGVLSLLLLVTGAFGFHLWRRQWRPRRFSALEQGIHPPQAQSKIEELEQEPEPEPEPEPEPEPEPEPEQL
Description: (§1) To further confirm that B3807 could bind to cell-derived human LAG3, both inducible human LAG3 expressed Jurkat cells and activated PBMCs were used to test the binding capability of B3807. In brief, Jurkat cells were resuspended in FACS buffer. B3807, 25F7 and isotype control were 3-fold serially diluted in FACS buffer with a dose ranging from 20 nM to 9 pM. The serially diluted antibodies were added to the cell suspension and incubated for 30 minutes on ice. Then after removal of unbound antibodies, cells were stained with anti-human IgG conjugated with Alexa Fluor 633 (Thermo, A21091). Fluorescence measurement was acquired on FACSCelesta flow cytometer and analyzed in Flowjo to determine the mean fluorescence intensities (MFI). To test the antibodies' ability of binding to native human LAG3, PBMCs from health donor were stimulated with anti-CD3 (BD, 555336) and anti-CD28 (BD, 555725) both at a concentration of 1 μg/ml. Following 3 days' stimulation, cells were harvested and incubated with anti-LAG3 antibodies for 30 mins on ice. The cells were stained with anti-human CD4 and anti-human IgG. Analysis of antibodies binding to CD4+ cells were carried out on FACSCelesta flow cytometry.

human LAG3 on cells [3] = target: T3, human LAG3 on cells; experiment: flow cytometry (MFI) on human LAG3-expressing Jurkat cells, upper panel
Description: as §1

[4] = target: T4, recombinant his-tag human LAG3-ECD protein (human, UniProt P18627 23-450); experiment: Biacore, antibody captured, His-tag human LAG3-ECD injected (procedure of Example 2.16(B))
T4 construct: extracellular domain; not shown: his tag
T4 sequence (looked up): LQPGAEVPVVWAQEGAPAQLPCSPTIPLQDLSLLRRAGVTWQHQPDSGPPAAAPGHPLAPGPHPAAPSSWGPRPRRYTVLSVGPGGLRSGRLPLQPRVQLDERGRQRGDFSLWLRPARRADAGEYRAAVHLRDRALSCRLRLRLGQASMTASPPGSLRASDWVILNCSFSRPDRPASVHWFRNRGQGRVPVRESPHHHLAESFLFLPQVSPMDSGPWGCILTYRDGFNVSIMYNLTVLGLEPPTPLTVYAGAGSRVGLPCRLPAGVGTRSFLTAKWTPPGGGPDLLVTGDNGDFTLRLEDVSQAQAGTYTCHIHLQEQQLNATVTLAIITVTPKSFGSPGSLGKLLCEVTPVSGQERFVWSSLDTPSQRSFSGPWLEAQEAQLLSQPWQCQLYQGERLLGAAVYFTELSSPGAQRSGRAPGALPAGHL
Description: (§2) The binding of B3807 to recombinant His-tag human LAG3-ECD protein was examined by Biacore T200 using a capture method. B3807 was captured using protein A which was immobilized on CM5 sensor chip. Serial concentrations of his-tag human LAG3-ECD protein (0-12 nM) were injected over capture antibodies at the flow rate of 30 μl/min. The dissociation phase was 900 s or 550 s.
(§3) B3807 was used in the following examples for further testing and preparing bispecific antibodies.

biotin-labeled LAG3-ECD = target: T5, biotin-labeled LAG3-ECD (Homo sapiens (Human), UniProt P18627 23-450, biotin label, site not stated); experiment: ELISA on coated recombinant FGL-1; blocking of the binding of biotin-labeled LAG3-ECD to FGL-1
T5 construct: also called soluble LAG-3; LAG3 protein
T5 sequence: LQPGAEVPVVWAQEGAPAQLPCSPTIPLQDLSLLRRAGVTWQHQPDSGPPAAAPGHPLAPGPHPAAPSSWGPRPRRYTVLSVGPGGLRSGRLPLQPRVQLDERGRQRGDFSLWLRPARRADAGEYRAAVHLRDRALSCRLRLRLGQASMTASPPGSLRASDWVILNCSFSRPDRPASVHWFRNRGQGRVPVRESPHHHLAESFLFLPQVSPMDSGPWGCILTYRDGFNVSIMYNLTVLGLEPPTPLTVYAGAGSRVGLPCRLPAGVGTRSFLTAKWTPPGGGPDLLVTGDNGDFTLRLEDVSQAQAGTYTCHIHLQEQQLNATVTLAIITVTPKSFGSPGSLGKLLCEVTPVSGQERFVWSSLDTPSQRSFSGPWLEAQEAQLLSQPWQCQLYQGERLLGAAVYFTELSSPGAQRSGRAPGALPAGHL
Description: Recombinant FGL-1 were coated on a 96 well plated at a concentration of 1 μg/ml and incubated overnight at 4° C. Serially diluted anti-LAG3 antibody B3807 (starting from 10 μg/ml and 1:3 dilution) and biotin-labeled LAG3-ECD (2 μg/ml) were incubated with FGL-1 coated wells at room temperature for 2 hours. After extensive washing with the wash buffer, streptavidin-HRP was added.

[5] = target: T4, recombinant his-tag human LAG3-ECD …; experiment: Biacore T200, B3807 captured on protein A, His-tag human LAG3-ECD injected; column 'KD', unit inferred
Description: as §2

[6] = target: T4, recombinant his-tag human LAG3-ECD …; experiment: Biacore, antibody captured, His-tag human LAG3-ECD injected (procedure of Example 2.16(B)); column kd(1/s)
Description: as §2, §3

[7] = target: T4, recombinant his-tag human LAG3-ECD …; experiment: Biacore, antibody captured, His-tag human LAG3-ECD injected (procedure of Example 2.16(B)); column ka (1/Ms)
Description: as §2, §3

B1: 147H 3807 (antibody, V domains shown)
VH: EVQLVQSGAEVKKPGASVKVSCKASGYTFTNYWLGWIKQAPGQGLEWIGDIYPGGDYIVYNEKFKGKATLTADTSISTAYMELSRLRSDDTAVYYCARPNLPKDHWGQGTTVTVSS
VL: DIVMTQSPLSLPVTPGEPASISCRSSKSLLHSQGITYLYWYLQKPGQSPQLLIYQVSNLASGVPDRFSGSGSGTDFTLKISRVEAEDVGVYYCAQYLELPWTFGGGTKVEIK
notes: also called B3807
Q: What does the source list for B1?
A: EC50 (Bio-LAG3): 0.06 nM; IC50 [1]: 0.41 nM; EC50 (human LAG3 on cells [2]): 0.32 nM; EC50 (human LAG3 on cells [3]): 0.06 nM; Kd [4]: 0.915 nM; IC50 (read off the curve) (biotin-labeled LAG3-ECD): ~0.2 µg/mL; Kd [5]: 0.464 nM; koff [6]: 0.00517 s⁻¹; kon [7]: 5.66e+06 M⁻¹ s⁻¹
